Laboratory results published in publication PMC11480844 (2024).

B1: H2-Kb / B15 (parent complex)
chain 1: QQQVRQSPQSLTVWEGETAILNCSYENSAFDYFPWYQQFPGEGPALLISILSVSDKKEDGRFTIFFNKREKKLSLHIADSQPGDSATYFCAASAASNNRLTLGKGTQVVVLP
chain 2: DSGVVQSPRHIIKEKGGRSVLTCIPISGHSNVVWYQQTLGKELKFLIQHYEKVERDKGFLPSRFSVQQFDDYHSEMNMSALELEDSAMYFCASSRRADAEQFFGPGTRLTVL
chain 3: not shown
chain 4: IQKTPQIQVYSRHPPENGKPNILNCYVTQFHPPHIEIQMLKNGKKIPKVEMSDMSFSKDWSFYILAHTEFTPTETDTYACRVKHDSMAEPKTVYWDRDM
chain 5: SIINFEKL
B2: H2-Kb / Ed46 (parent complex)
chain 1: AQSVTQPDARVTVSEGASLQLRCKYSYFGTPYLFWYVQYPRQGLQLLLKYYPGDPVVQGVNGFEAEFSKSNSSFHLRKASVHWSDWAVYFCAVGRTGGYKVVFGSGTRLLVSP
chain 2: DSGVVQSPRHIIKEKGGRSVLTCIPISGHSNVVWYQQTLGKELKFLIQHYEKVERDKGFLPSRFSVQQFDDYHSEMNMSALELEDSAMYFCASSPRHSDYTFGSGTRLLVI
chain 3: not shown
chain 4: B1 chain 4
chain 5: SIINFEKL

Variants of: B1
Test: % of reporter cells activated (NFAT-GFP), raw
Note: test concentration or dose not given here.

Variant	ratio to parent
chain 5 E6L	0.0519
chain 5 E6D	0.956
chain 5 E6N	0.195
chain 5 E6H	0.241
chain 5 I2M	0.89
chain 5 I2E	0.915
chain 5 I2T	1.02
chain 5 I2F	0.882
chain 5 I2W	0.811
chain 5 I3A	0.5
chain 5 I3D	0.503
chain 5 F5M	0.836
chain 5 F5G	0.792
chain 5 F5I	0.818
chain 5 F5K	0.698
chain 5 F5P	0.829
chain 5 F5C	0.834
chain 5 F5S	0.969
chain 5 F5L	0.775

Continued, values first:

ratio to parent	Variant
0.359	chain 5 K7A
0.377	chain 5 K7P
0.27	chain 5 K7N
0.0553	chain 5 K7C
0.26	chain 5 N4E
0.028	chain 5 N4V
0.202	chain 5 N4F
0.194	chain 5 N4I
0.089	chain 5 N4H
0.0132	chain 5 N4Q
0.21	chain 5 N4K
0.0135	chain 5 N4S
0.144	chain 5 S1F
0.517	chain 5 S1H
0.416	chain 5 S1N
1.03	chain 5 S1R
0.601	chain 5 S1M
0.898	chain 5 S1D
0.727	chain 5 S1Y
0.961	chain 5 S1Q
0.487	chain 5 S1T
0.601	chain 5 I3S
0.0985	chain 5 I3N
0.743	chain 5 I3Q
0.982	chain 5 I3P
0.75	chain 5 L8G
0.904	chain 5 L8R
0.784	chain 5 L8Q

Variants of: B2
Test: % of reporter cells activated (NFAT-GFP), raw

Variant	ratio to parent
chain 5 E6G	0.355
chain 5 E6Y	0.119
chain 5 E6H	0.25
chain 5 E6N	0.464
chain 5 E6K	0.746
chain 5 E6S	0.249
chain 5 E6F	0.0998
chain 5 E6D	1.02
chain 5 E6C	0.0448
chain 5 E6Q	0.475
chain 5 E6M	0.398
chain 5 E6V	0.0112
chain 5 E6R	0.632
chain 5 E6I	0.0119
chain 5 E6P	0.329
chain 5 E6T	0.0683
chain 5 I3A	0.139
chain 5 I3C	0.689
chain 5 I3F	0.726
chain 5 I3L	1.05
chain 5 F5W	1.2
chain 5 F5K	0.845
chain 5 F5G	0.916
chain 5 F5V	1.05

Variant	ratio to parent
chain 5 F5N	0.955
chain 5 F5H	1.23
chain 5 F5P	1.17
chain 5 F5D	0.591
chain 5 F5A	1.01
chain 5 F5I	1.02
chain 5 F5T	1.38
chain 5 F5E	0.65
chain 5 F5Y	1.3
chain 5 F5Q	0.757
chain 5 I2G	1.2
chain 5 I2M	1.17
chain 5 I2D	1.37
chain 5 I2K	1.12
chain 5 I2V	1.4
chain 5 I2E	1.11
chain 5 I2P	1.23
chain 5 I2H	0.785
chain 5 I2S	1.4
chain 5 I2Q	0.775
chain 5 I2C	1.26
chain 5 I2L	1.38
chain 5 I2W	0.693

Results, then the variant that gave them:

ratio to parent	Variant
0.291	chain 5 K7T
0.0438	chain 5 K7F
0.74	chain 5 K7H
0.353	chain 5 K7V
0.689	chain 5 K7S
0.341	chain 5 K7G
0.0863	chain 5 K7M
0.0219	chain 5 K7D
0.814	chain 5 K7R
0.383	chain 5 K7A
0.446	chain 5 K7Y
0.349	chain 5 K7P
0.669	chain 5 I3P
0.724	chain 5 I3V
0.301	chain 5 I3T
0.64	chain 5 I3W
0.34	chain 5 I3N
1.06	chain 5 I3S
0.383	chain 5 I3Q

ratio to parent	Variant
0.0092	chain 5 S1L
0.39	chain 5 S1G
0.223	chain 5 S1R
0.675	chain 5 S1D
0.0213	chain 5 S1I
0.328	chain 5 S1K
0.795	chain 5 S1Y
0.0873	chain 5 S1Q
0.174	chain 5 S1E
0.018	chain 5 S1F
0.235	chain 5 S1M
0.151	chain 5 S1W
0.718	chain 5 L8P
1.01	chain 5 L8T
1.08	chain 5 L8M
0.886	chain 5 L8V
0.703	chain 5 L8G
0.912	chain 5 L8H
0.691	chain 5 L8E

ratio to parent	Variant
0.918	chain 5 L8W
0.697	chain 5 L8N
0.783	chain 5 L8S
0.977	chain 5 L8Q
0.918	chain 5 L8R
1.06	chain 5 L8F
0.618	chain 5 L8D
0.009	chain 5 N4D
0.0038	chain 5 N4A
0.00601	chain 5 N4S
0.0192	chain 5 N4F
0.00323	chain 5 N4V
0.036	chain 5 N4H
0.0356	chain 5 N4C
0.00528	chain 5 N4Q
0.0143	chain 5 N4E
0.00595	chain 5 N4G
0.0714	chain 5 N4I
